Literature values, collected in patent US20080113011A1, “Compositions and methods for enhanced mucosal delivery of interferon beta” (Nastech Pharmaceutical Company Inc., priority 2002, published 2008).
Like-named read-outs stand apart in the source and are kept apart here.

Settings: anesthetized rats

For “human growth hormone: human growth hormone given nasally to anesthetized rats with or without N-acetyl-L-cysteine”, the nasal bioavailability (with N-acetyl-L-cysteine (ACS)) is listed as 12.2% and the nasal bioavailability (without N-acetyl-L-cysteine) is listed as 7.5%.
